In the supplement of paper PMC10598134 one finds collision cross section data, which are given here for 59 substances.

This data set can be described thus: collision cross section of modified peptide (TIMS, N2, iRT-aligned); higher = larger / more extended gas-phase ion. An outline of the steps:
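Values are averages of 1–3 technical replicates of the most abundant feature for each charge state. Collision cross section was obtained from the Mason-Schamp equation after 1/K0 calibration with three reference ions and run-wise alignment to the median iRT peptide deviation. Synthetic peptide pools (iRT standard spiked 1:40) were separated on a 120-min nanoflow C18 gradient at 60 °C, analysed on a timsTOF Pro/HT (dda-PASEF, nitrogen, ~2.4 mbar) and identified with MaxQuant.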

Setting [1] is: charge state: 2, modification: Acetyl (K).
The mark [2] stands for this setting: charge state: 3, modification: Acetyl (K).
Where [3] appears, read: charge state: 2, modification: Methyl (K).
Where [4] appears, read: charge state: 3, modification: Methyl (K).
[5] abbreviates: charge state: 2, modification: Dimethyl (K).
Setting [6] is: charge state: 3, modification: Dimethyl (K).
Setting [7] is: charge state: 2, modification: Crotonyl.
[8] abbreviates: charge state: 2, modification: Glutarylation.
[9] abbreviates: charge state: 2, modification: Propionyl.
[10] abbreviates: charge state: 2, modification: Succinyl.
The mark [11] stands for this setting: charge state: 3, modification: Trimethyl (K).
The mark [12] stands for this setting: charge state: 2, modification: GlyGly (K).
[13] abbreviates: charge state: 3, modification: GlyGly (K).
[14] abbreviates: charge state: 3, modification: Propionyl.
Where [15] appears, read: charge state: 2, modification: Trimethyl (K).
Setting [16] is: charge state: 3, modification: Butyryl.
Where [17] appears, read: charge state: 2, modification: hydroxyisobutyryl.
Where [18] appears, read: charge state: 3, modification: hydroxyisobutyryl.
The mark [19] stands for this setting: charge state: 2, modification: Hydroxyproline.
Where [20] appears, read: charge state: 2, modification: Butyryl.
Where [21] appears, read: charge state: 2, modification: Biotin.
Setting [22] is: charge state: 3, modification: Biotin.
Where [23] appears, read: charge state: 2, modification: Nitro (Y).

± gives the standard deviation.

Consider LDHLAEKFR [_LDHLAEK(Acetyl (K))FR_], for which the collision cross section reads like this: under setting [1], 371.59 ± 0.95 Å²; under setting [2], 438.53 ± 3.2 Å². As for “GATVTRGVPPPPTVR [_GATVTR(Citrullination (R))GVPPPPTVR_]”, the collision cross section (charge state: 2, modification: Citrullination (R)) came to 398.42 ± 2.1 Å² and the collision cross section (charge state: 3, modification: Citrullination (R)) is on record as 501.66 Å². Turning to “ASDTSSETVFGKR [_ASDTSSETVFGK(Methyl (K))R_]”, the collision cross section runs as follows: under setting [3], 406.57 ± 1.3 Å²; under setting [4], 477.14 ± 3.8 Å². Regarding “VYIASSSGSTAIKK [_VYIASSSGSTAIK(Dimethyl (K))K_]”, the collision cross section came out at 434.74 ± 1.3 Å² under setting [5] and 497.25 ± 0.75 Å² under setting [6]. For the substance ASAISIKLGSSK [_ASAISIK(Crotonyl)LGSSK_], the collision cross section under setting [7] came to 374.63 ± 0.89 Å². On to “LTEKELAEAASK [_LTEK(Gluratylation)ELAEAASK_]”, for which the collision cross section under setting [8] is 395.13 ± 2.6 Å² and the collision cross section (charge state: 3, modification: Glutarylation) is reported as 453.47 ± 1.2 Å².

As to TTEETSKPK [_TTEETSK(Propionyl)PK_], the collision cross section under setting [9] was determined as 342.02 ± 0.39 Å². Turning to “DKALPLEAEVAPVK [_DK(Succinyl)ALPLEAEVAPVK_]”, under setting [10], the collision cross section was found to be 421.55 ± 0.36 Å². With “PSVGSQSNQAGQGKR [_PSVGSQSNQAGQGK(Trimethyl (K))R_]”, the collision cross section under setting [11] came out at 463.16 ± 1.5 Å².

Regarding LGNDFHTNKR [_LGNDFHTNK(GlyGly (K))R_], the collision cross section was found to be 384.34 ± 1.5 Å² under setting [12] and 447.63 ± 1.2 Å² under setting [13]. LDHLAEKFR [_LDHLAEK(Propionyl)FR_]: the collision cross section under setting [14] stood at 442.11 ± 0.59 Å². Consider “LLFSNTAAQKLR [_LLFSNTAAQK(Trimethyl (K))LR_]”, for which the collision cross section was found to be 428.25 ± 0.6 Å² under setting [15] and 480.65 ± 2.4 Å² under setting [11]. “IHNAENIQPGEQKYEYK [_IHNAENIQPGEQK(Butyryl)YEYK_]” displayed a collision cross section under setting [16] of 530.34 ± 2.7 Å².

VTGGIFSVTK [_VTGGIFS(HexNAc (ST))VTK_]: the collision cross section (charge state: 2, modification: HexNAc (ST)) is 361.54 ± 1.2 Å². For the substance “VSPASSVDSNIPSSQGYKK [_VSPASSVDSNIPSSQGYK(GlyGly (K))K_]”, the collision cross section runs as follows: under setting [12], 469.54 ± 1.4 Å²; under setting [13], 521.06 ± 4.6 Å². As to “SLEEEGAAHSGKR [_SLEEEGAAHSGK(Crotonyl)R_]”, the collision cross section was found to be 420.35 ± 1.1 Å² under setting [7] and 486.66 ± 11 Å² (charge state: 3, modification: Crotonyl). In turn, “GADFLVTEVENGGSLGSKK [_GADFLVTEVENGGSLGSK(hydroxyisobutyryl)K_]” displayed a collision cross section under setting [17] of 478.5 ± 1.3 Å² and a collision cross section under setting [18] of 553.89 Å². For the substance “VDIDVPDVNIEGPDAKLK [_VDIDVPDVNIEGPDAK(Trimethyl (K))LK_]”, the collision cross section is, setting by setting: under setting [15], 470.5 Å²; under setting [11], 538.87 ± 1.8 Å².

With “FSAYIKNSNPALNDNLEK [_FSAYIK(GlyGly (K))NSNPALNDNLEK_]”, the collision cross section is, setting by setting: under setting [12], 506.19 ± 1.5 Å²; under setting [13], 530.18 ± 11 Å².

Consider “IPQEKCILQTDVK [_IPQEK(GlyGly (K))CILQTDVK_]”, for which the collision cross section under setting [12] came to 446.01 ± 0.95 Å² and the collision cross section under setting [13] came to 482.94 ± 1.1 Å². “GAEKTEVAEPR [_GAEK(Trimethyl (K))TEVAEPR_]” returned a collision cross section under setting [11] of 447.07 ± 3.3 Å². Substance “YEQEHAAIQDKLFQVAK [_YEQEHAAIQDK(Trimethyl (K))LFQVAK_]” came in with a collision cross section under setting [11] of 561.55 ± 0.91 Å². On to “VPGVGLPGVYPGGVLPGAR [_VPGVGLPGVYPGGVLP(Hydroxyproline)GAR_]”, for which the collision cross section is, setting by setting: under setting [19], 432.24 ± 0.28 Å²; (charge state: 3, modification: Hydroxyproline) 534.68 ± 3 Å². For the substance “LGVATVAKGVCGACK [_LGVATVAK(Butyryl)GVCGACK_]”, the collision cross section is, setting by setting: under setting [20], 418.39 ± 0.77 Å²; under setting [16], 491.64 Å². As to DHLSDKESK [_DHLSDK(Butyryl)ESK_], the collision cross section under setting [20] worked out at 355.58 ± 0.7 Å². “IHVQSSSDSSDEPAEKR [_IHVQSSSDSSDEPAEK(Acetyl (K))R_]” came in with a collision cross section under setting [1] of 446.96 ± 2.2 Å² and a collision cross section under setting [2] of 501.64 ± 1.1 Å². Turning to “KFGVLSDNFK [_K(Trimethyl (K))FGVLSDNFK_]”, the collision cross section was determined as 372.9 ± 0.61 Å² under setting [15] and 457.56 Å² under setting [11]. For “SGKFTQQDIDEAK [_SGK(Trimethyl (K))FTQQDIDEAK_]”, in that order: 408.18 ± 1.1 Å² and 472.62 ± 0.88 Å². Regarding “SLEEEGAAHSGKR [_SLEEEGAAHSGK(GlyGly (K))R_]”, the collision cross section is, setting by setting: under setting [12], 418.89 ± 1.9 Å²; under setting [13], 473.02 ± 0.33 Å².

Substance ITASLCDLKSR [_ITASLCDLK(Butyryl)SR_] returned a collision cross section under setting [20] of 390.25 Å². For “VYIASSSGSTAIKK [_VYIASSSGSTAIK(Propionyl)K_]”, under setting [9], the collision cross section stood at 415.66 ± 0.38 Å².

With “KFGVLSDNFK [_K(Gluratylation)FGVLSDNFK_]”, the collision cross section under setting [8] is reported as 380.33 ± 0.73 Å². For “SSGPGGQNVNKVNSK [_SSGPGGQNVNK(Biotin)VNSK_]”, the collision cross section under setting [21] is listed as 422.28 ± 2 Å² and the collision cross section under setting [22] was 467.62 ± 0.34 Å².

“IYELAAGGTAVGTGLNTR [_IY(Nitro (Y))ELAAGGTAVGTGLNTR_]”: the collision cross section under setting [23] stood at 447.13 ± 1.1 Å². “GEQGEPGAPGIR [_GEQGEP(Hydroxyproline)GAPGIR_]” yielded a collision cross section under setting [19] of 349.07 ± 0.25 Å². In the case of “LDEKENLSAK [_LDEK(Trimethyl (K))ENLSAK_]”, the collision cross section came out at 376.2 ± 0.61 Å² under setting [15] and 441.92 ± 3.4 Å² under setting [11]. Regarding “TTGFYSGFSEVAEKR [_TTGFYSGFSEVAEK(Methyl (K))R_]”, the collision cross section is 449.23 ± 2.4 Å² under setting [3] and 510.26 ± 2 Å² under setting [4]. For “SLGEPAAGEGSAKR [_SLGEPAAGEGSAK(Dimethyl (K))R_]”, the collision cross section by setting is: under setting [5], 415.22 ± 2 Å²; under setting [6], 473.88 ± 2.6 Å². In turn, “TEVLSPNSKVESK [_TEVLSPNSK(hydroxyisobutyryl)VESK_]” registered a collision cross section under setting [17] of 419.54 ± 0.31 Å² and a collision cross section under setting [18] of 455.3 ± 1.9 Å². In turn, “DKALPLEAEVAPVK [_DK(Crotonyl)ALPLEAEVAPVK_]” registered a collision cross section under setting [7] of 411.34 ± 0.34 Å². For LGSPSGKTGTCR [_LGSPSGK(Succinyl)TGTCR_], the collision cross section under setting [10] turned out to be 368.12 ± 0.52 Å². The substance “GYDVIAQAQSGTGK [_GY(Phospho (Y))DVIAQAQSGTGK_]” showed a collision cross section (charge state: 2, modification: Phospho (Y)) of 388.75 ± 0.77 Å².

For “ANEKTESSSAQQVAVSR [_ANEK(Propionyl)TESSSAQQVAVSR_]”, the collision cross section was determined as 439.84 ± 1.6 Å² under setting [9] and 533.7 Å² under setting [14]. As to LQLEIDQKK [_LQLEIDQK(Crotonyl)K_], under setting [7], the collision cross section turned out to be 366.56 Å². Take “DYSSGFGGKYGVQADR [_DYSSGFGGK(Dimethyl (K))YGVQADR_]”: the collision cross section by setting is: under setting [5], 435.9 ± 1.8 Å²; under setting [6], 488.23 ± 0.74 Å². “VDIDAPDVSIEGPDAKLK [_VDIDAPDVSIEGPDAK(Gluratylation)LK_]” had a collision cross section under setting [8] of 469.43 ± 1.5 Å². Under “charge state: 2, modification: Malonyl”, TLDEILQEKK [_TLDEILQEK(Malonyl)K_] showed a collision cross section of 380.87 ± 4.1 Å².

For the substance “ITGKNQVTATK [_ITGK(Gluratylation)NQVTATK_]”, under setting [8], the collision cross section was determined as 369.78 ± 0.66 Å².

For the substance “VLDSGAPIKIPVGPETLGR [_VLDSGAPIK(Methyl (K))IPVGPETLGR_]”, under setting [4], the collision cross section was found to be 510.82 ± 2.8 Å².

In turn, “LGTTPSVYGGAGGRGIR [_LGTTPSVYGGAGGR(Methyl (R))GIR_]” showed a collision cross section (charge state: 3, modification: Methyl (R)) of 525.94 ± 0.78 Å². The substance “RLDINTNTYTSQDLK [_RLDINTNTYTS(HexNAc (ST))QDLK_]” showed a collision cross section (charge state: 3, modification: HexNAc (ST)) of 511.61 ± 0.96 Å². For “DASTLQSQKAEGTGDAK [_DASTLQSQK(Acetyl (K))AEGTGDAK_]”, the collision cross section by setting is: under setting [1], 431.11 ± 1.6 Å²; under setting [2], 508.84 ± 0.99 Å². “LGSPSGKTGTCR [_LGSPSGK(Gluratylation)TGTCR_]”: the collision cross section under setting [8] is 369.43 ± 0.9 Å².

PATSYVR [_PATSY(Nitro (Y))VR_]: the collision cross section under setting [23] was 318.95 ± 2.2 Å². Regarding ILDLKTGTVK [_ILDLK(Propionyl)TGTVK_], under setting [9], the collision cross section was determined as 359.51 ± 0.33 Å². Under setting [5], PSVSTKLISK [_PSVSTK(Dimethyl (K))LISK_] displayed a collision cross section of 362.9 ± 0.28 Å². Regarding “LTSLNVKYNNDK [_LTSLNVK(GlyGly (K))YNNDK_]”, the collision cross section was 424.54 ± 1.4 Å² under setting [12] and 491.6 ± 1.1 Å² under setting [13]. As for “LQAAYAGDKADDIQK [_LQAAYAGDK(Biotin)ADDIQK_]”, the collision cross section under setting [21] amounted to 449.09 ± 0.62 Å² and the collision cross section under setting [22] was determined as 511.95 ± 0.34 Å². The substance VNALKNLQVK [_VNALK(Propionyl)NLQVK_] had a collision cross section under setting [9] of 372.11 ± 0.65 Å².
